{
  "source": "patent US20260035426",
  "proteins": {"B1": {"name": "recombinant human MMP2 (protein)", "chain": "YNFFPRKPKWDKNQITYRIIGYTPDLDPETVDDAFARAFQVWSDVTPLRFSRIHDGEADIMINFGRWEHGDGYPFDGKDGLLAHAFAPGTGVGGDSHFDDDELWTLGEGQVVRVKYGNADGEYCKFPFLFNGKEYNSCTDTGRSDGFLWCSTTYNFEKDGKYGFCPHEALFTMGGNAEGQPCKFPFRFQGTSYDSCTTEGRTDGYRWCGTTEDYDRDKKYGFCPETAMSTVGGNSEGAPCVFPFTFLGNKYESCTSAGRSDGKMWCATTANYDDDRKWGFCPDQGYSLFLVAAHEFGHAMGLEHSQDPGALMAPIYTYTKNFRLSQDDIKGIQELYGASPDIDLGTGPTPTLGPVTPEICKQDIVFDGIAQIRGEIFFFKDRFIWRTVTPRDKPMGPLLVATFWPELPEKIDAVYEAPQEEKAVFFAGNEYWIYSASTLERGYPKPLTSLGLPPDVQRVDAAFNWSKNKKTYIFAGDKFWRYNEVKKKMDPGFPKLIADAWNAIPDNLDAVVDLQGGGHSYFFKGAYYLKLENQSLKSVKFGSIKSDWLGC"}},
  "target": "SB1902-C2",
  "sequence (chain, as listed by the source, chain 1 of 2)": "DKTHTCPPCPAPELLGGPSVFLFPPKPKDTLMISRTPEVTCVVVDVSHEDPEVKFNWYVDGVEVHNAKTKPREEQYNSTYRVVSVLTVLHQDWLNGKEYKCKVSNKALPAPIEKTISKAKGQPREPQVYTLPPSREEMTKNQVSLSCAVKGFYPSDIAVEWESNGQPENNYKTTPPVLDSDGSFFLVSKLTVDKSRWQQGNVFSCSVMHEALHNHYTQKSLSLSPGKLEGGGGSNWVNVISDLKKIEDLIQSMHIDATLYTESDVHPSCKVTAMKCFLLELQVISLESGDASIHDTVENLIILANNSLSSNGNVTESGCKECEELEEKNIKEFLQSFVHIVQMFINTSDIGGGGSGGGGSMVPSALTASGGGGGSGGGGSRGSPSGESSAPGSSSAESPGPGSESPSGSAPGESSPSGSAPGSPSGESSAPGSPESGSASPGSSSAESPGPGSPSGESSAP",
  "sequence (chain, as listed by the source, chain 2 of 2)": "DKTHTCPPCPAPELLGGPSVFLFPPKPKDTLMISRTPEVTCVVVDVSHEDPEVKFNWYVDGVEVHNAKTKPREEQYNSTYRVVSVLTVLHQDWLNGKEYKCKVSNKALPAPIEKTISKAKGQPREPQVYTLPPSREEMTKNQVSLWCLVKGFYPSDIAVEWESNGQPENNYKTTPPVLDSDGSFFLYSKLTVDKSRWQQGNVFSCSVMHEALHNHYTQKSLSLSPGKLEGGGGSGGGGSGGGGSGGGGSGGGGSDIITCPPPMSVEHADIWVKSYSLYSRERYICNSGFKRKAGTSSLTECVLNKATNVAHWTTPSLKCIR",
  "data": [
    {"protein": "B1", "values": [
      {"measurement": "digestion efficiency by SDS-PAGE", "value": "about 90% of the prodrug SB1902-C2 was digested"}
    ]}
  ]
}
